Assay results: publication doi:10.1101/743195

Target: human low-density lipoprotein (LDL) particles (human)
Assay: co-sedimentation

percent inhibition of LDL binding against WT	percent decrease of LDL binding	Substance
> 90%	–	PCSK9 A44P (from UniProt Q8NBP7) (natural protein)
–	> 50%	PCSK9 Y38A (from UniProt Q8NBP7) (natural protein)
